# According to patent US20240400654A1:
# Numbering of substitutions follows the chain as printed. In names and notes the source's numbering stands. Several values for one entry are separate records, joined by “and”; a condition that tells them apart may be missing. Identical values can stand only once.
# B1: KB001 mouse Fab VL A25Y (Fab, V domains shown)
# VH: EVQLKQSGPGLVAPSQSLSITCTVSGFSLSIYSVHWVRQPPGKGLEWLGMIWGGGSSDYNSALKSRLSISKDNSKSQVFLKMNSLQTDDTAMYYCARNGNFYAMDYWGQGTSVTVSS
# VL: QIVLTQSPAIMSASLGERVTMTCTYSSSVSSSFLHWYQQKPGSSPQLWIYSTSNLASGVPARFSGSGSGTSYSLTISSMEAEDAATYYCHQYHHSPYIYTFGGGTKLEIK
# B2: KB001 mouse Fab VL S32A (Fab, V domains shown)
# VH: B1 VH
# VL: B1 VL with Y25A, S32A
# B3: KB001 mouse Fab VL S30T (Fab, V domains shown)
# VH: B1 VH
# VL: B1 VL with Y25A, S30T
# B4: KB001 mouse Fab VL S30R (Fab, V domains shown)
# VH: B1 VH
# VL: B1 VL with Y25A, S30R
# B5: KB001 mouse Fab VL S28D (Fab, V domains shown)
# VH: B1 VH
# VL: B1 VL with Y25A, S28D
# B6: KB001 mouse Fab VL S27Y (Fab, V domains shown)
# VH: B1 VH
# VL: B1 VL with Y25A, S27Y
# B7: KB001 mouse Fab VL S31D (Fab, V domains shown)
# VH: B1 VH
# VL: B1 VL with Y25A, S31D
# B8: KB001 mouse Fab VL S30M (Fab, V domains shown)
# VH: B1 VH
# VL: B1 VL with Y25A, S30M
# B9: KB001 mouse Fab VL S26P (Fab, V domains shown)
# VH: B1 VH
# VL: B1 VL with Y25A, S26P
# B10: KB001 mouse Fab VL S27M (Fab, V domains shown)
# VH: B1 VH
# VL: B1 VL with Y25A, S27M
# B11: KB001 mouse Fab VL S27K/S68Y (Fab, V domains shown)
# VH: B1 VH
# VL: B1 VL with Y25A, S27K, S68Y
# B12: KB001 mouse Fab VL S30D (Fab, V domains shown)
# VH: B1 VH
# VL: B1 VL with Y25A, S30D
# B13: KB001 mouse Fab VL S27W (Fab, V domains shown)
# VH: B1 VH
# VL: B1 VL with Y25A, S27W
# B14: KB001 mouse Fab VL S32W (Fab, V domains shown)
# VH: B1 VH
# VL: B1 VL with Y25A, S32W
# B15: KB001 mouse Fab VL A25E (Fab, V domains shown)
# VH: B1 VH
# VL: B1 VL with Y25E
# B16: KB001 mouse Fab VL A25V (Fab, V domains shown)
# VH: B1 VH
# VL: B1 VL with Y25V
# B17: KB001 mouse Fab VL S30K (Fab, V domains shown)
# VH: B1 VH
# VL: B1 VL with Y25A, S30K
# B18: KB001 mouse Fab VL V29L (Fab, V domains shown)
# VH: B1 VH
# VL: B1 VL with Y25A, V29L
# B19: KB001 mouse Fab VL S32G (Fab, V domains shown)
# VH: B1 VH
# VL: B1 VL with Y25A, S32G
# B20: KB001 mouse Fab VL S27L (Fab, V domains shown)
# VH: B1 VH
# VL: B1 VL with Y25A, S27L
# B21: KB001 mouse Fab VL S28M (Fab, V domains shown)
# VH: B1 VH
# VL: B1 VL with Y25A, S28M
# B22: KB001 mouse Fab VL S28T/S12R (Fab, V domains shown)
# VH: B1 VH
# VL: B1 VL with S12R, Y25A, S28T
# B23: KB001 mouse Fab VL S28H (Fab, V domains shown)
# VH: B1 VH
# VL: B1 VL with Y25A, S28H
# B24: KB001 mouse Fab VL A25P (Fab, V domains shown)
# VH: B1 VH
# VL: B1 VL with Y25P
# B25: KB001 mouse Fab VL S28N (Fab, V domains shown)
# VH: B1 VH
# VL: B1 VL with Y25A, S28N
# B26: KB001 mouse Fab VL S30L (Fab, V domains shown)
# VH: B1 VH
# VL: B1 VL with Y25A, S30L
# B27: KB001 mouse Fab VL S31W (Fab, V domains shown)
# VH: B1 VH
# VL: B1 VL with Y25A, S31W
# B28: KB001 mouse Fab VL S26G (Fab, V domains shown)
# VH: B1 VH
# VL: B1 VL with Y25A, S26G
# B29: KB001 mouse Fab VL V29I (Fab, V domains shown)
# VH: B1 VH
# VL: B1 VL with Y25A, V29I
# B30: KB001 mouse Fab VL S27N (Fab, V domains shown)
# VH: B1 VH
# VL: B1 VL with Y25A, S27N
# B31: KB001 mouse Fab VL S27V (Fab, V domains shown)
# VH: B1 VH
# VL: B1 VL with Y25A, S27V
# B32: KB001 mouse Fab VL S32Y (Fab, V domains shown)
# VH: B1 VH
# VL: B1 VL with Y25A, S32Y
# B33: KB001 mouse Fab VL S30E (Fab, V domains shown)
# VH: B1 VH
# VL: B1 VL with Y25A, S30E
# B34: KB001 mouse Fab VL S32P (Fab, V domains shown)
# VH: B1 VH
# VL: B1 VL with Y25A, S32P
# B35: KB001 mouse Fab VL S30I (Fab, V domains shown)
# VH: B1 VH
# VL: B1 VL with Y25A, S30I
# B36: KB001 mouse Fab VL S27H (Fab, V domains shown)
# VH: B1 VH
# VL: B1 VL with Y25A, S27H
# B37: KB001 mouse Fab VL S26T (Fab, V domains shown)
# VH: B1 VH
# VL: B1 VL with Y25A, S26T
# B38: KB001 mouse Fab VL S32Q (Fab, V domains shown)
# VH: B1 VH
# VL: B1 VL with Y25A, S32Q
# B39: KB001 mouse Fab VL S30H (Fab, V domains shown)
# VH: B1 VH
# VL: B1 VL with Y25A, S30H
# B40: KB001 mouse Fab VL A25G (Fab, V domains shown)
# VH: B1 VH
# VL: B1 VL with Y25G
# B41: KB001 mouse Fab VL S30W (Fab, V domains shown)
# VH: B1 VH
# VL: B1 VL with Y25A, S30W
# B42: KB001 mouse Fab VL S31Q (Fab, V domains shown)
# VH: B1 VH
# VL: B1 VL with Y25A, S31Q
# Target: HRgpA-6H (Porphyromonas gingivalis) (UniProt P28784)
# Chain of UniProt P28784 (P28784 228-860 limits assumed): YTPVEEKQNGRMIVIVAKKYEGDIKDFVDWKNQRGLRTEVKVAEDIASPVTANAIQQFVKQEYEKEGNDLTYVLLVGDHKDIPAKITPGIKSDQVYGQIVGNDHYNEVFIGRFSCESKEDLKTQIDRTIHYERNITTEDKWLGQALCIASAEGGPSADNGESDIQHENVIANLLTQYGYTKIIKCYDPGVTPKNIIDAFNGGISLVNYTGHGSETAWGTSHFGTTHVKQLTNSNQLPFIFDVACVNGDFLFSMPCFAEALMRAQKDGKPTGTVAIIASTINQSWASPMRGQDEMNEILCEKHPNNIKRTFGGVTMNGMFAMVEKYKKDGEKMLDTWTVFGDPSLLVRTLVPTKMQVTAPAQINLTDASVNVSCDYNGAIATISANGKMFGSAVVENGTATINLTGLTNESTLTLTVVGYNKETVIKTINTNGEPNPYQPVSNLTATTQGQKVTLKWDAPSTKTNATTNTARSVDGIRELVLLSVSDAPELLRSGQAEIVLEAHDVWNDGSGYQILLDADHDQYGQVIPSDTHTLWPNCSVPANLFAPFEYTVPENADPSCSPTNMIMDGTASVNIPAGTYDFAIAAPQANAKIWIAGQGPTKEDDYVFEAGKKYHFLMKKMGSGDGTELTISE
# Test: ELISA, coated HRgpA-6H
Binder,OD450 nm,Ratio OD(Variant)/OD(WT)
B1,0.755 and 0.757,0.964 and 0.967
B2,0.748 and 0.805,0.885 and 0.953
B3,0.838 and 0.817,0.972 and 0.948
B4,0.778 and 0.793 and 0.802,0.903 and 0.92 and 0.93
B5,0.745 and 0.722,0.993 and 0.962
B6,0.617,0.822
B7,0.762,0.902
B8,0.818,0.949
B9,0.644 and 0.677,0.822 and 0.865
B10,0.709,0.945
B11,0.736,0.981
B12,0.702 and 0.723,0.814 and 0.839
B13,0.601,0.801
B14,0.649,0.856
B15,0.655,0.837
B16,0.768,0.981
B17,0.77,0.893
B18,0.751,0.871
B19,0.759,0.898
B20,0.649,0.865
B21,0.706 and 0.675,0.941 and 0.899

Binder,OD450 nm,Ratio OD(Variant)/OD(WT)
B22,0.747,0.995
B23,0.719,0.958
B24,0.742 and 0.766 and 0.749,0.948 and 0.978 and 0.957
B25,0.743,0.99
B26,0.813,0.943
B27,0.808,0.956
B28,0.73,0.932
B29,0.853,0.99
B30,0.675 and 0.724 and 0.64,0.899 and 0.965 and 0.853
B31,0.645 and 0.646,0.859 and 0.861
B32,0.753,0.891
B33,0.813,0.943
B34,0.744,0.88
B35,0.86,0.998
B36,0.664 and 0.63 and 0.726,0.885 and 0.839 and 0.967
B37,0.761,0.972
B38,0.716,0.847
B39,0.808 and 0.747,0.937 and 0.867
B40,0.668 and 0.699 and 0.673,0.853 and 0.893 and 0.86
B41,0.823,0.955
B42,0.83 and 0.745 and 0.782,0.982 and 0.882 and 0.925
